According to patent US20210388087A1 (Chugai, published 2021):

B1: H183/L072 VH G26A (antibody, name in Kabat numbering, V domains shown)
VH: QVQLVESGGGLVQPGRSLRLSCAASAFTFSNAWMHWVRQAPGKGLEWVAQIKDKGNAYAAYYAPSVKGRFTISRDDSKNSIYLQMNSLKTEDTAVYYCHYVHYASASTVLPAFGVDAWGQGTTVTVSS
VL: DIVMTQSPLSLPVTPGEPASISCQASQELVHMNRNTYLHWYQQKPGQAPRLLIYKVSNRFPGVPDRFSGSGSGTDFTLKISRVEAEDVGVYYCAQGTSVPFTFGQGTKLEIK
B2: H183/L072 VH G26S (antibody, name in Kabat numbering, V domains shown)
VH: QVQLVESGGGLVQPGRSLRLSCAASSFTFSNAWMHWVRQAPGKGLEWVAQIKDKGNAYAAYYAPSVKGRFTISRDDSKNSIYLQMNSLKTEDTAVYYCHYVHYASASTVLPAFGVDAWGQGTTVTVSS
VL: DIVMTQSPLSLPVTPGEPASISCQASQELVHMNRNTYLHWYQQKPGQAPRLLIYKVSNRFPGVPDRFSGSGSGTDFTLKISRVEAEDVGVYYCAQGTSVPFTFGQGTKLEIK
B3: H183/L072 VH G52cH (antibody, name in Kabat numbering, V domains shown)
VH: QVQLVESGGGLVQPGRSLRLSCAASGFTFSNAWMHWVRQAPGKGLEWVAQIKDKHNAYAAYYAPSVKGRFTISRDDSKNSIYLQMNSLKTEDTAVYYCHYVHYASASTVLPAFGVDAWGQGTTVTVSS
VL: DIVMTQSPLSLPVTPGEPASISCQASQELVHMNRNTYLHWYQQKPGQAPRLLIYKVSNRFPGVPDRFSGSGSGTDFTLKISRVEAEDVGVYYCAQGTSVPFTFGQGTKLEIK
B4: H183/L072 VH G26F (antibody, name in Kabat numbering, V domains shown)
VH: QVQLVESGGGLVQPGRSLRLSCAASFFTFSNAWMHWVRQAPGKGLEWVAQIKDKGNAYAAYYAPSVKGRFTISRDDSKNSIYLQMNSLKTEDTAVYYCHYVHYASASTVLPAFGVDAWGQGTTVTVSS
VL: DIVMTQSPLSLPVTPGEPASISCQASQELVHMNRNTYLHWYQQKPGQAPRLLIYKVSNRFPGVPDRFSGSGSGTDFTLKISRVEAEDVGVYYCAQGTSVPFTFGQGTKLEIK
B5: H183/L072 VH G52cF (antibody, name in Kabat numbering, V domains shown)
VH: QVQLVESGGGLVQPGRSLRLSCAASGFTFSNAWMHWVRQAPGKGLEWVAQIKDKFNAYAAYYAPSVKGRFTISRDDSKNSIYLQMNSLKTEDTAVYYCHYVHYASASTVLPAFGVDAWGQGTTVTVSS
VL: DIVMTQSPLSLPVTPGEPASISCQASQELVHMNRNTYLHWYQQKPGQAPRLLIYKVSNRFPGVPDRFSGSGSGTDFTLKISRVEAEDVGVYYCAQGTSVPFTFGQGTKLEIK
B6: H183/L072 VH G26I (antibody, name in Kabat numbering, V domains shown)
VH: QVQLVESGGGLVQPGRSLRLSCAASIFTFSNAWMHWVRQAPGKGLEWVAQIKDKGNAYAAYYAPSVKGRFTISRDDSKNSIYLQMNSLKTEDTAVYYCHYVHYASASTVLPAFGVDAWGQGTTVTVSS
VL: DIVMTQSPLSLPVTPGEPASISCQASQELVHMNRNTYLHWYQQKPGQAPRLLIYKVSNRFPGVPDRFSGSGSGTDFTLKISRVEAEDVGVYYCAQGTSVPFTFGQGTKLEIK
B7: H183/L072 VH G26P (antibody, name in Kabat numbering, V domains shown)
VH: QVQLVESGGGLVQPGRSLRLSCAASPFTFSNAWMHWVRQAPGKGLEWVAQIKDKGNAYAAYYAPSVKGRFTISRDDSKNSIYLQMNSLKTEDTAVYYCHYVHYASASTVLPAFGVDAWGQGTTVTVSS
VL: DIVMTQSPLSLPVTPGEPASISCQASQELVHMNRNTYLHWYQQKPGQAPRLLIYKVSNRFPGVPDRFSGSGSGTDFTLKISRVEAEDVGVYYCAQGTSVPFTFGQGTKLEIK
B8: H183/L072 VH G26N (antibody, name in Kabat numbering, V domains shown)
VH: QVQLVESGGGLVQPGRSLRLSCAASNFTFSNAWMHWVRQAPGKGLEWVAQIKDKGNAYAAYYAPSVKGRFTISRDDSKNSIYLQMNSLKTEDTAVYYCHYVHYASASTVLPAFGVDAWGQGTTVTVSS
VL: DIVMTQSPLSLPVTPGEPASISCQASQELVHMNRNTYLHWYQQKPGQAPRLLIYKVSNRFPGVPDRFSGSGSGTDFTLKISRVEAEDVGVYYCAQGTSVPFTFGQGTKLEIK
B9: H183/L072 VH G26D (antibody, name in Kabat numbering, V domains shown)
VH: QVQLVESGGGLVQPGRSLRLSCAASDFTFSNAWMHWVRQAPGKGLEWVAQIKDKGNAYAAYYAPSVKGRFTISRDDSKNSIYLQMNSLKTEDTAVYYCHYVHYASASTVLPAFGVDAWGQGTTVTVSS
VL: DIVMTQSPLSLPVTPGEPASISCQASQELVHMNRNTYLHWYQQKPGQAPRLLIYKVSNRFPGVPDRFSGSGSGTDFTLKISRVEAEDVGVYYCAQGTSVPFTFGQGTKLEIK
B10: H183/L072 VH G52cD (antibody, name in Kabat numbering, V domains shown)
VH: QVQLVESGGGLVQPGRSLRLSCAASGFTFSNAWMHWVRQAPGKGLEWVAQIKDKDNAYAAYYAPSVKGRFTISRDDSKNSIYLQMNSLKTEDTAVYYCHYVHYASASTVLPAFGVDAWGQGTTVTVSS
VL: DIVMTQSPLSLPVTPGEPASISCQASQELVHMNRNTYLHWYQQKPGQAPRLLIYKVSNRFPGVPDRFSGSGSGTDFTLKISRVEAEDVGVYYCAQGTSVPFTFGQGTKLEIK
B11: H183/L072 VH G26H (antibody, name in Kabat numbering, V domains shown)
VH: QVQLVESGGGLVQPGRSLRLSCAASHFTFSNAWMHWVRQAPGKGLEWVAQIKDKGNAYAAYYAPSVKGRFTISRDDSKNSIYLQMNSLKTEDTAVYYCHYVHYASASTVLPAFGVDAWGQGTTVTVSS
VL: DIVMTQSPLSLPVTPGEPASISCQASQELVHMNRNTYLHWYQQKPGQAPRLLIYKVSNRFPGVPDRFSGSGSGTDFTLKISRVEAEDVGVYYCAQGTSVPFTFGQGTKLEIK
B12: H183/L072 VH G26Q (antibody, name in Kabat numbering, V domains shown)
VH: QVQLVESGGGLVQPGRSLRLSCAASQFTFSNAWMHWVRQAPGKGLEWVAQIKDKGNAYAAYYAPSVKGRFTISRDDSKNSIYLQMNSLKTEDTAVYYCHYVHYASASTVLPAFGVDAWGQGTTVTVSS
VL: DIVMTQSPLSLPVTPGEPASISCQASQELVHMNRNTYLHWYQQKPGQAPRLLIYKVSNRFPGVPDRFSGSGSGTDFTLKISRVEAEDVGVYYCAQGTSVPFTFGQGTKLEIK
B13: H183/L072 VH G26R (antibody, name in Kabat numbering, V domains shown)
VH: QVQLVESGGGLVQPGRSLRLSCAASRFTFSNAWMHWVRQAPGKGLEWVAQIKDKGNAYAAYYAPSVKGRFTISRDDSKNSIYLQMNSLKTEDTAVYYCHYVHYASASTVLPAFGVDAWGQGTTVTVSS
VL: DIVMTQSPLSLPVTPGEPASISCQASQELVHMNRNTYLHWYQQKPGQAPRLLIYKVSNRFPGVPDRFSGSGSGTDFTLKISRVEAEDVGVYYCAQGTSVPFTFGQGTKLEIK
B14: H183/L072 VH G52cI (antibody, name in Kabat numbering, V domains shown)
VH: QVQLVESGGGLVQPGRSLRLSCAASGFTFSNAWMHWVRQAPGKGLEWVAQIKDKINAYAAYYAPSVKGRFTISRDDSKNSIYLQMNSLKTEDTAVYYCHYVHYASASTVLPAFGVDAWGQGTTVTVSS
VL: DIVMTQSPLSLPVTPGEPASISCQASQELVHMNRNTYLHWYQQKPGQAPRLLIYKVSNRFPGVPDRFSGSGSGTDFTLKISRVEAEDVGVYYCAQGTSVPFTFGQGTKLEIK
B15: H183/L072 VH G26L (antibody, name in Kabat numbering, V domains shown)
VH: QVQLVESGGGLVQPGRSLRLSCAASLFTFSNAWMHWVRQAPGKGLEWVAQIKDKGNAYAAYYAPSVKGRFTISRDDSKNSIYLQMNSLKTEDTAVYYCHYVHYASASTVLPAFGVDAWGQGTTVTVSS
VL: DIVMTQSPLSLPVTPGEPASISCQASQELVHMNRNTYLHWYQQKPGQAPRLLIYKVSNRFPGVPDRFSGSGSGTDFTLKISRVEAEDVGVYYCAQGTSVPFTFGQGTKLEIK
B16: H183/L072 VH G26W (antibody, name in Kabat numbering, V domains shown)
VH: QVQLVESGGGLVQPGRSLRLSCAASWFTFSNAWMHWVRQAPGKGLEWVAQIKDKGNAYAAYYAPSVKGRFTISRDDSKNSIYLQMNSLKTEDTAVYYCHYVHYASASTVLPAFGVDAWGQGTTVTVSS
VL: DIVMTQSPLSLPVTPGEPASISCQASQELVHMNRNTYLHWYQQKPGQAPRLLIYKVSNRFPGVPDRFSGSGSGTDFTLKISRVEAEDVGVYYCAQGTSVPFTFGQGTKLEIK
B17: H183/L072 VH G26E (antibody, name in Kabat numbering, V domains shown)
VH: QVQLVESGGGLVQPGRSLRLSCAASEFTFSNAWMHWVRQAPGKGLEWVAQIKDKGNAYAAYYAPSVKGRFTISRDDSKNSIYLQMNSLKTEDTAVYYCHYVHYASASTVLPAFGVDAWGQGTTVTVSS
VL: DIVMTQSPLSLPVTPGEPASISCQASQELVHMNRNTYLHWYQQKPGQAPRLLIYKVSNRFPGVPDRFSGSGSGTDFTLKISRVEAEDVGVYYCAQGTSVPFTFGQGTKLEIK
B18: H183/L072 VH G52cA (antibody, name in Kabat numbering, V domains shown)
VH: QVQLVESGGGLVQPGRSLRLSCAASGFTFSNAWMHWVRQAPGKGLEWVAQIKDKANAYAAYYAPSVKGRFTISRDDSKNSIYLQMNSLKTEDTAVYYCHYVHYASASTVLPAFGVDAWGQGTTVTVSS
VL: DIVMTQSPLSLPVTPGEPASISCQASQELVHMNRNTYLHWYQQKPGQAPRLLIYKVSNRFPGVPDRFSGSGSGTDFTLKISRVEAEDVGVYYCAQGTSVPFTFGQGTKLEIK
B19: H183/L072 VH G52cE (antibody, name in Kabat numbering, V domains shown)
VH: QVQLVESGGGLVQPGRSLRLSCAASGFTFSNAWMHWVRQAPGKGLEWVAQIKDKENAYAAYYAPSVKGRFTISRDDSKNSIYLQMNSLKTEDTAVYYCHYVHYASASTVLPAFGVDAWGQGTTVTVSS
VL: DIVMTQSPLSLPVTPGEPASISCQASQELVHMNRNTYLHWYQQKPGQAPRLLIYKVSNRFPGVPDRFSGSGSGTDFTLKISRVEAEDVGVYYCAQGTSVPFTFGQGTKLEIK
B20: H183/L072 VH G26T (antibody, name in Kabat numbering, V domains shown)
VH: QVQLVESGGGLVQPGRSLRLSCAASTFTFSNAWMHWVRQAPGKGLEWVAQIKDKGNAYAAYYAPSVKGRFTISRDDSKNSIYLQMNSLKTEDTAVYYCHYVHYASASTVLPAFGVDAWGQGTTVTVSS
VL: DIVMTQSPLSLPVTPGEPASISCQASQELVHMNRNTYLHWYQQKPGQAPRLLIYKVSNRFPGVPDRFSGSGSGTDFTLKISRVEAEDVGVYYCAQGTSVPFTFGQGTKLEIK
B21: H183/L072 VH G26Y (antibody, name in Kabat numbering, V domains shown)
VH: QVQLVESGGGLVQPGRSLRLSCAASYFTFSNAWMHWVRQAPGKGLEWVAQIKDKGNAYAAYYAPSVKGRFTISRDDSKNSIYLQMNSLKTEDTAVYYCHYVHYASASTVLPAFGVDAWGQGTTVTVSS
VL: DIVMTQSPLSLPVTPGEPASISCQASQELVHMNRNTYLHWYQQKPGQAPRLLIYKVSNRFPGVPDRFSGSGSGTDFTLKISRVEAEDVGVYYCAQGTSVPFTFGQGTKLEIK

Target: T1, Human CD137 ECD (human)
T1 construct: also called 4-1BB
T1 sequence (chain, as listed by the source limits assumed): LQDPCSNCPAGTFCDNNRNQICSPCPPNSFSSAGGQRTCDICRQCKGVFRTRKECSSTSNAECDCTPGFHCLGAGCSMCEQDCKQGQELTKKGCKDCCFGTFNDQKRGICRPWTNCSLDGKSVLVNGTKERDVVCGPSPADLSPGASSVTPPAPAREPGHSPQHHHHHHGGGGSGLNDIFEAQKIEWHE
Assay: single mutant vs template dBBDu183H

B1 and B2 are the same in “fold change of affinity” value: 0.4 fold for the first, 0.4 fold for the second.

First: B3
Second: B4
The “fold change of affinity” value of the first is higher: 1.3 fold for the first, 0.3 fold for the second.

Going from B5 to B6, the “fold change of affinity” value falls from 1.7 fold to 0.3 fold.

Going from B7 to B8, the “fold change of affinity” value rises from 0.1 fold to 0.5 fold.

Compared with B9, B10 is lower in “fold change of affinity” value: 0.8 fold for the first, 0.6 fold for the second.

B11 and B12 are the same in “fold change of affinity” value: 0.4 fold for the first, 0.4 fold for the second.

First: B13
Second: B14
The “fold change of affinity” value of the first is lower: 0.3 fold for the first, 0.7 fold for the second.

B15 and B16 are the same in “fold change of affinity” value: 0.3 fold for the first, 0.3 fold for the second.

Compared with B17, B18 is higher in “fold change of affinity” value: 0.5 fold for the first, 0.8 fold for the second.

Going from B19 to B20, the “fold change of affinity” value falls from 0.8 fold to 0.5 fold.

B21 was tested, and the “fold change of affinity” value was 0.3 fold.
